Consider one substance from article PMC3169740.

For the experiment, the target named is fluorescein-labeled SC pseudorepeat-repeat-1 peptide PR-R1[5F] (S. aureus). The experiment in a line: other fluorescence titration.

Regarding “fibrinogen fragment D (domain or fragment)”, the Kd amounted to 36 nM and the stoichiometry N (mol of fragment D/mol of peptide) amounted to 0.77.

By Kd is commonly meant the free concentration of one partner at which half of the binding sites on the other are occupied at equilibrium, for simple one-to-one binding. Lower therefore signals tighter binding.
